Assay results from publication PMC3828642, “1-Aminocyclopropane-1-carboxylic acid oxidase reaction mechanism and putative post-translational activities of the ACCO protein” (AoB Plants, 2013).
Several values for one entry are separate records, joined by “and”; a condition that tells them apart may be missing. Equal values may be shown once.

Target: 1-Aminocyclopropane-1-carboxylic acid (ACC) oxidase ACCO1 from apple (Malus domestica), His-Tag fusion protein (apple (Malus domestica))
Assay: SEC; Sephadex G-200 column chromatography; activity of the monomer, dimer and tetramer forms; data not shown

- stoichiometry N: 2 and 4
Substance: 1-Aminocyclopropane-1-carboxylic acid (ACC) oxidase ACCO1 from apple (Malus domestica), His-Tag fusion protein (enzyme)
